“And” between values parts separate entries of the source, which are not always exact repeats. Identical values can stand only once.
Columns and labels:
[1] = target: T1, mouse MMP9 (mouse, UniProt P41245 20-730, limits assumed); assay: ELISA
T1 construct: The immunogen for AB0046 was a pro/catalytic domain fragment of mouse MMP9; also called マウスMMP9

[2] = target: T1, mouse MMP9; assay: cell-based or functional assay
[3] = target: T2, human MMP9 (human, UniProt P14780 20-707, limits assumed); assay: SPR
T2 construct: also called ヒトMMP9; matrix metalloproteinase-9
T2 sequence (P14780 20-707 Q279R/R574P limits assumed): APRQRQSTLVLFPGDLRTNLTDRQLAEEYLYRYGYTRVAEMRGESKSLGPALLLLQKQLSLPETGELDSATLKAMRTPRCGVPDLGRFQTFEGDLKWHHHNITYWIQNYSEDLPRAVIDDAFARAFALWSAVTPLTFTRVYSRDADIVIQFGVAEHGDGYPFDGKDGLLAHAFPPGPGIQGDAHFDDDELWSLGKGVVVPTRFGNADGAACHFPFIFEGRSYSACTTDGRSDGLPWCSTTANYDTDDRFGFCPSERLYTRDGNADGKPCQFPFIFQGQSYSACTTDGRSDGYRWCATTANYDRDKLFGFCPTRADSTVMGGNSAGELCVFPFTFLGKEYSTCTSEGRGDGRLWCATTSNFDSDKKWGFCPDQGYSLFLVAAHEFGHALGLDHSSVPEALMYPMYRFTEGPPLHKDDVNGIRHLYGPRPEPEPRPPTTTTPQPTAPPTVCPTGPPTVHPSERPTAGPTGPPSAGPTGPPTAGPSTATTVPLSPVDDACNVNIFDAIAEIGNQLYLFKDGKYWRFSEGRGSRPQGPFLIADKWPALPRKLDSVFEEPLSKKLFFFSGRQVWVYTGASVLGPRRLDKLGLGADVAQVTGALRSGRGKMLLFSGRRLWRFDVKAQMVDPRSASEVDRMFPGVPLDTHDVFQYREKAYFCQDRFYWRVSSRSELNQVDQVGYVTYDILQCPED

[4] = target: T3, cynomolgus monkey MMP9 (cynomolgus monkey, UniProt A0A2K5UU71 20-706); assay: ELISA
T3 construct: also called カニクイザルMMP9; recombinant cynomolgus MMP9
T3 sequence (A0A2K5UU71 entry or part of it): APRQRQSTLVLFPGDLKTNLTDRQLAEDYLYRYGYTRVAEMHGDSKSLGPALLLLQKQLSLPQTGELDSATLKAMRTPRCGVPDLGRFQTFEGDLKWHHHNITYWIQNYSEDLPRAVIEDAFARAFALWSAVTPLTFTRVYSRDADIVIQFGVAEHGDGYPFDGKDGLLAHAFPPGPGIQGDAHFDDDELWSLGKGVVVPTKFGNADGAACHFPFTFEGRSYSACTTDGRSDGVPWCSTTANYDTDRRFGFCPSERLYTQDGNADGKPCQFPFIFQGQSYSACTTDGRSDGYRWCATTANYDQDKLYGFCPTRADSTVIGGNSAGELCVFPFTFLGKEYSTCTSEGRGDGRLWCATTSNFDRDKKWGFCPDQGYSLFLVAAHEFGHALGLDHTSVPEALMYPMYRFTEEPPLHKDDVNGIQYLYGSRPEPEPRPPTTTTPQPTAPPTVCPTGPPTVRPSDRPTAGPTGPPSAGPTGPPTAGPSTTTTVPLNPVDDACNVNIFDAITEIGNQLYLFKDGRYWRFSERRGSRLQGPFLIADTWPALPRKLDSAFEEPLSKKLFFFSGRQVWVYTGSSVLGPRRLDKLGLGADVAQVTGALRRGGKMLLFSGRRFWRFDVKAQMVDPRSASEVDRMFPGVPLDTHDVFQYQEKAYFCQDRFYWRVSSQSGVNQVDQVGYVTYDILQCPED

[5] = target: T4, rat MMP9 (rat, UniProt P50282 20-708, limits assumed); assay: ELISA
T4 construct: also called ラットMMP9; recombinant rat MMP9
T4 sequence (P50282 20-708 limits assumed): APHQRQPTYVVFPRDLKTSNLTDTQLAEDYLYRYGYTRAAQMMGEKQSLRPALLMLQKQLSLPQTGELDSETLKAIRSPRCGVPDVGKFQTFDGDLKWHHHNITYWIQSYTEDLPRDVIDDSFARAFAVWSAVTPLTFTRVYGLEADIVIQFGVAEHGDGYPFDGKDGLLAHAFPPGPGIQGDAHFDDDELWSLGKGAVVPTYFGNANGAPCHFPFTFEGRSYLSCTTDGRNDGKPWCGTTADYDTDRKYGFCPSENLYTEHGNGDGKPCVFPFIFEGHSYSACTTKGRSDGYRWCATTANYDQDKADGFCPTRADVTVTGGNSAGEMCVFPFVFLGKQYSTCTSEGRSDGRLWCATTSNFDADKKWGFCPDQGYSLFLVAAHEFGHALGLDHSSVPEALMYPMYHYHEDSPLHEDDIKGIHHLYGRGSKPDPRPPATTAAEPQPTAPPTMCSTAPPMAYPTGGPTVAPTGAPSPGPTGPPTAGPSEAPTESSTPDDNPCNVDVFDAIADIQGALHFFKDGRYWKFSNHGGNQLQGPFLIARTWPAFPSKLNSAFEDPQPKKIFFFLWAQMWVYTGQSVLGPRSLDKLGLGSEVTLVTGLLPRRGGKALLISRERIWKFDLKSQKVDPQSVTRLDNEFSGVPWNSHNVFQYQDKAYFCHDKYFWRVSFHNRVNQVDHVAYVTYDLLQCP

[6] = target: T2, human MMP9; assay: cell-based or functional assay
[7] = target: T2, human MMP9; assay: ELISA
[8] = target: T2, human MMP9; assay: direct binding assay and SPR

T1 sequence (P41245 20-730 limits assumed): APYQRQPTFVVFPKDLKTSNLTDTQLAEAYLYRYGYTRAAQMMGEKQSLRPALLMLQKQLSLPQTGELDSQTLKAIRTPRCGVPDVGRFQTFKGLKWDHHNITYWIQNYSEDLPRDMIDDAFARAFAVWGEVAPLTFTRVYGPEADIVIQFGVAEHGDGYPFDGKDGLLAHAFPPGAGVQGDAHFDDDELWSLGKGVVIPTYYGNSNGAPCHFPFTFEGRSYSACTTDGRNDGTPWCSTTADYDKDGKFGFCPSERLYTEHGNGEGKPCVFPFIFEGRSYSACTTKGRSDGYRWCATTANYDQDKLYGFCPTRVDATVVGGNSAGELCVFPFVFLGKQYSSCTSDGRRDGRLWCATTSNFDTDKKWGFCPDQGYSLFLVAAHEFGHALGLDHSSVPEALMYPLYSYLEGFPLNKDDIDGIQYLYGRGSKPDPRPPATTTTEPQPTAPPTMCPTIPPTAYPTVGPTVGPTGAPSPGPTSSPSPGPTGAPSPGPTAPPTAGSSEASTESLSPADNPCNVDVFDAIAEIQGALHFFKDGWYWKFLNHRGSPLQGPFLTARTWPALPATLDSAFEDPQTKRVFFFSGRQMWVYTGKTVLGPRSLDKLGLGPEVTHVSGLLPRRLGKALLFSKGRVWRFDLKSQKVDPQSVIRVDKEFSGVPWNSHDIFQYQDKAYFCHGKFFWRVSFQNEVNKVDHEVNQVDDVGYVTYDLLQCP

B1: AB0046 (antibody, V domains shown)
VH: QVQLQQPGSVLVRPGASVKLSCTASGYTFTSYWMNWVKQRPGQGLEWIGEIYPISGRTNYNEKFKVKATLTVDTSSSTAYMDLNSLTSEDSAVYYCARSRANWDDYWGQGTTLTVSS
VL: DIQMTQTTSSLSASLGDRVTISCSASQGISNYLNWYQQKPDGTFKLLIYYTSILHSGVPSRFSGSGSGTDYSLTISNLEPEDIATYYCQQYGWLPRTFGGGTKLEIKR
notes: Mouse IgG1 / kappa; also called AB0046; anti-mouse MMP9 antibody
[1]
  Kd: 0.218 nM
[2]
  IC50, MMP9-mediated cleavage of fluorogenic peptide substrate Mca-PLGL-Dpa-AR-NH2: 0.352 nM

B2: AB0041 (antibody, V domains shown)
VH: QVQLKESGPGLVAPSQSLSITCTVSGFSLLSYGVHWVRQPPGKGLEWLGVIWTGGTTNYNSALMSRLSISKDDSKSQVFLKMNSLQTDDTAIYYCARYYYGMDYWGQGTSVTVSS
VL: DIVMTQSHKFMSTSVGDRVSITCKASQDVRNTVAWYQQKTGQSPKLLIYSSSYRNTGVPDRFTGSGSGTDFTFTISSVQAEDLAVYFCQQHYITPYTFGGGTKLEIKR
[3]
  Kd: 0.0004 nM
[4]
  Kd: < 0.4 nM
[5]
  Kd: < 0.4 nM
[6]
  IC50, MMP9-mediated cleavage of fluorogenic peptide substrate Mca-PLGL-Dpa-AR-NH2: 0.569 nM

B3: AB0045 (antibody, V domains shown)
VH: QVQLQESGPGLVKPSETLSLTCTVSGFSLLSYGVHWVRQPPGKGLEWLGVIWTGGTTNYNSALMSRFTISKDDSKNTVYLKMNSLKTEDTAIYYCARYYYGMDYWGQGTLVTVSS
VL: DIQMTQSPSSLSASVGDRVTITCKASQDVRNTVAWYQQKPGKAPKLLIYSSSYRNTGVPDRFSGSGSGTDFTLTISSLQAEDVAVYYCQQHYITPYTFGGGTKVEIKR
notes: Humanized, modified human IgG4 (S241P) / kappa; also called AB0045; humanized variant anti-MMP9 antibody
[3]
  Kd: 0.0088 nM
[7]
  Kd: < 0.4 nM and 0.168 nM
[4]
  Kd: < 0.4 nM
[5]
  Kd: < 0.4 nM
[6]
  IC50, MMP9-mediated cleavage of fluorogenic peptide substrate Mca-PLGL-Dpa-AR-NH2: 0.691 nM
  IC50, MMP9 enzyme assay under steady state: 0.148 nM and 0.161 nM and 0.158 nM
[8]
  Kd: ~0.001 nM

— patent publication JP2018082720A (dated 2018)
